One block for each substance: values may come before it.
What was measured:
[1] = target: BoeAcrIIC1 (AcrIIC1 ortholog from Brackiella oedipodis) (Brackiella oedipodis); assay: SEC + other: 1H NMR spectra; AcrIIC1 ortholog alone, oxidizing condition
[2] = target: biotinylated NmeHNH (Neisseria meningitidis) (UniProt C9X1G5); assay: BLI; biotinylated NmeHNH on streptavidin biosensors, Acr as analyte, 37 °C, 20 mM Tris, 100 mM NaCl, pH 7.4 without DTT; global 1:1 fit
Cys17 = Cys17 (UniProt position 17, AGYDGCGLCLA); assay: NMR; details: 25 °C (general statement in the NMR methods), 100 mM NaCl, 50 mM Tris, buffer-exchanged at each pH, Free protein. Reduced monomer is inferred from Cbeta shifts of about 25.5-29.5 ppm, typical of free thiol. The presence of a reductant in the titration buffer is not stated.
Cys80 = Cys80 (UniProt position 80, VGMASCWEFVE); assay: NMR; details: 25 °C (general statement in the NMR methods), 100 mM NaCl, 50 mM Tris, buffer-exchanged at each pH, Free protein. Reduced monomer is inferred from Cbeta shifts of about 25.5-29.5 ppm, typical of free thiol. The presence of a reductant in the titration buffer is not stated.
[3] = target: NmeAcrIIC1 (AcrIIC1 from Neisseria meningitidis), reduced form (Neisseria meningitidis); assay: SEC; NmeAcrIIC1 alone, no reductant in the buffer or excess H2O2 added to the monomer eluent
[4] = target: biotinylated NmeHNH (Neisseria meningitidis) (UniProt C9X1G5); assay: BLI; biotinylated NmeHNH on streptavidin biosensors, Acr as analyte, 37 °C, 20 mM Tris, 100 mM NaCl, pH 7.4 with 1 mM DTT; global 1:1 fit

stoichiometry N [3]: 2
Kd [4]: 1.78 nM
Substance: NmeAcrIIC1 (AcrIIC1 from Neisseria meningitidis), reduced form (natural protein)

Kd [2]: 10.8 nM
Kd [4]: 12.7 nM
Substance: AcrIIC1-SS (NmeAcrIIC1 with Cys17 and Cys80 substituted with serine) (natural protein)

Second part, the substance before the results:

Substance: BoeAcrIIC1 (AcrIIC1 ortholog from Brackiella oedipodis) (natural protein)
stoichiometry N [1]: 2

Substance: oxidized NmeAcrIIC1 dimer (natural protein)
BLI response [2]: < 0.05

Substance: Anti-CRISPR protein AcrIIC1 (NmeAcrIIC1) (Neisseria meningitidis)
pKa (Cys17): 8.920 ± 0.158
pKa (Cys80): 8.258 ± 0.218

From publication PMC9674691
